Experimental data as given in patent US20250186614A1, “COMPACT DRUG RESPONSIVE DOMAINS FOR REGULATION OF FUNCTION/ABUNDANCE AND DELIVERY OF POLYPEPTIDE PAYLOADS” (OBSIDIAN THERAPEUTICS, INC., priority 2022, published 2025).
Where two headings read alike, the source gives them in different places.

Experiments:
[1] = Example 4: dose response of FKBP constructs 160-255, Ec50, Ec90 and fold change (raw and normalized to mCherry); type: cell-based; conditions: for FC (fold change): fold change during initial analysis
Protocol: Additional experiments were performed for constructs FKBP-160-292.

Jurkat cells = assay: Tacrolimus dose response of FKBP13-AcGFP-mCherry constructs stably transduced into Jurkat cells, GFP MFI by flow cytometry; type: cell-based; set-up: Basal: unit not given here; conditions: for Fold Change: Jurkat cells, Table 13
Summary of the method: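 Jurkat E6-1 cells lentivirally transduced with FKBP13-AcGFP-mCherry constructs to 10-25% mCherry+ (day 5) were dosed with tacrolimus. GFP geometric MFI in mCherry+ cells was measured by flow cytometry and fitted to dose-response curves.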

[2] = FKBP constructs 160-255, not normalized, read-out: EC90
[3] = normalized to mCherry, read-out: EC90 (Norm)

Row | Molecule | EC90 [1, 2] [nM] | FC (fold change) [1] | EC90 [1, 3] [nM] | Fold Change (Jurkat cells; tacrolimus) | FC (Jurkat cells; tacrolimus, FIG. 38) | Peak (Jurkat cells; tacrolimus, FIG. 38) | also measured
1 | FKBP-203: FKBP13 DRD-AcGFP construct of Table 10 (protein, Description of sequence: Construct Name: FKBP-203; Mutation(s): Q72R Q84E A117W V85R DRD M54A P75L) HCPIKSRKGDVLHAHYTGKLEDGTEFDSSLPRNQLFVFSLGTGERIKGWDQGLLGMCEGEKRKLVIPSELGYGERGWPPKIPGGATLVFEVELLKIER | 657 | 66.0 | 747 | – | – | – | –
2 | FKBP-207 (protein, Description of sequence: Construct Name: FKBP-207; Mutation(s): Q72R Q84E A117W V85R DRD M54A I136V) HCPIKSRKGDVLHAHYTGKLEDGTEFDSSLPRNQPFVFSLGTGERIKGWDQGLLGMCEGEKRKLVIPSELGYGERGWPPKIPGGATLVFEVELLKVER | 311 | 35.4 | 302 | – | – | – | –
3 | FKBP-259: FKBP13 DRD-AcGFP construct of Table 10 (protein, Description of sequence: Construct Name: FKBP-259; Mutation(s): Q72R Q84E A117W V85R DRD E130K) HCPIKSRKGDVLHMHYTGKLEDGTEFDSSLPRNQPFVFSLGTGERIKGWDQGLLGMCEGEKRKLVIPSELGYGERGWPPKIPGGATLVFKVELLKIER | – | – | – | 103 | – | – | Basal (Jurkat cells; FIG. 40): 72.3; FC (Jurkat cells; FIG. 40): 90; Peak (Jurkat cells; FIG. 40): 6232; Basal (Jurkat cells; FIG. 47, BR1 (Biorep 1)): 70.7; FC (Jurkat cells; FIG. 47, BR1 (Biorep 1)): 95.97; At 10 uM (Jurkat cells; FIG. 47, BR1 (Biorep 1)): 6785; Basal (Jurkat cells; FIG. 47, BR2 (Biorep 2)): 77.3; FC (Jurkat cells; FIG. 47, BR2 (Biorep 2)): 84.76; At 10 uM (Jurkat cells; FIG. 47, BR2 (Biorep 2)): 6552; FC (Jurkat cells; tacrolimus, FIGS. 29 and 30): 103
4 | FKBP-292: FKBP13 DRD-AcGFP construct of Table 10 (protein, Description of sequence: Construct Name: FKBP-292; Mutation(s): Q72R Q84E A117W V85R K135Q) HCPIKSRKGDVLHMHYTGKLEDGTEFDSSLPRNQPFVFSLGTGERIKGWDQGLLGMCEGEKRKLVIPSELGYGERGWPPKIPGGATLVFEVELLQIER | – | – | – | 50.68 | 50.68 | 3797 | –
5 | FKBP-256: FKBP13 DRD-AcGFP construct of Table 10 (protein, Description of sequence: Construct Name: FKBP-256; Mutation(s): Q72R Q84E A117W V85R DRD E137M) HCPIKSRKGDVLHMHYTGKLEDGTEFDSSLPRNQPFVFSLGTGERIKGWDQGLLGMCEGEKRKLVIPSELGYGERGWPPKIPGGATLVFEVELLKIMR | – | – | – | 78 | – | – | Basal (Jurkat cells; FIG. 41): 111; FC (Jurkat cells; FIG. 41): 65; Peak (Jurkat cells; FIG. 41): 6851; Basal (Jurkat cells; FIG. 43, BR1 (Biorep 1)): 110; FC (Jurkat cells; FIG. 43, BR1 (Biorep 1)): 71.46; At 10 uM (Jurkat cells; FIG. 43, BR1 (Biorep 1)): 7861; Basal (Jurkat cells; FIG. 43, BR2 (Biorep 2)): 125; FC (Jurkat cells; FIG. 43, BR2 (Biorep 2)): 59.04; At 10 uM (Jurkat cells; FIG. 43, BR2 (Biorep 2)): 7380; FC (Jurkat cells; tacrolimus, FIGS. 29 and 30): 78
6 | FKBP-257: FKBP13 DRD-AcGFP construct of Table 10 (protein, Description of sequence: Construct Name: FKBP-257; Mutation(s): Q72R Q84E A117W V85R DRD E137F) HCPIKSRKGDVLHMHYTGKLEDGTEFDSSLPRNQPFVFSLGTGERIKGWDQGLLGMCEGEKRKLVIPSELGYGERGWPPKIPGGATLVFEVELLKIFR | – | – | – | 65 | – | – | Basal (Jurkat cells; FIG. 41): 98; FC (Jurkat cells; FIG. 41): 59; Peak (Jurkat cells; FIG. 41): 5501; Basal (Jurkat cells; FIG. 43, BR1 (Biorep 1)): 107; FC (Jurkat cells; FIG. 43, BR1 (Biorep 1)): 59.79; At 10 uM (Jurkat cells; FIG. 43, BR1 (Biorep 1)): 6397; Basal (Jurkat cells; FIG. 43, BR2 (Biorep 2)): 118; FC (Jurkat cells; FIG. 43, BR2 (Biorep 2)): 50.39; At 10 uM (Jurkat cells; FIG. 43, BR2 (Biorep 2)): 5946; FC (Jurkat cells; tacrolimus, FIGS. 29 and 30): 65
7 | FKBP-289: FKBP13 DRD-AcGFP construct of Table 10 (protein, Description of sequence: Construct Name: FKBP-289; Mutation(s): Q72R Q84E A117W V85R K120I K135Y) HCPIKSRKGDVLHMHYTGKLEDGTEFDSSLPRNQPFVFSLGTGERIKGWDQGLLGMCEGEKRKLVIPSELGYGERGWPPIIPGGATLVFEVELLYIER | – | – | – | 73.38 | 73.38 | 2659 | –
8 | FKBP-290: FKBP13 DRD-AcGFP construct of Table 10 (protein, Description of sequence: Construct Name: FKBP-290; Mutation(s): Q72R Q84E A117W V85R K120I E130F) HCPIKSRKGDVLHMHYTGKLEDGTEFDSSLPRNQPFVFSLGTGERIKGWDQGLLGMCEGEKRKLVIPSELGYGERGWPPIIPGGATLVFFVELLKIER | – | – | – | 92.89 | 92.89 | 3191 | –
9 | FKBP-205 (protein, Description of sequence: Construct Name: FKBP-205; Mutation(s): Q72R Q84E A117W V85R DRD M54A L104V) HCPIKSRKGDVLHAHYTGKLEDGTEFDSSLPRNQPFVFSLGTGERIKGWDQGLLGMCEGEKRKVVIPSELGYGERGWPPKIPGGATLVFEVELLKIER | 183 | 30.1 | 184 | – | – | – | –
10 | FKBP-291: FKBP13 DRD-AcGFP construct of Table 10 (protein, Description of sequence: Construct Name: FKBP-291; Mutation(s): Q72R Q84E A117W V85R E130N) HCPIKSRKGDVLHMHYTGKLEDGTEFDSSLPRNQPFVFSLGTGERIKGWDQGLLGMCEGEKRKLVIPSELGYGERGWPPKIPGGATLVFNVELLKIER | – | – | – | 53.37 | 53.37 | 3859 | –
11 | FKBP-206 (protein, Description of sequence: Construct Name: FKBP-206; Mutation(s): Q72R Q84E A117W V85R DRD M54A K135Y) HCPIKSRKGDVLHAHYTGKLEDGTEFDSSLPRNQPFVFSLGTGERIKGWDQGLLGMCEGEKRKLVIPSELGYGERGWPPKIPGGATLVFEVELLYIER | 573 | 50.1 | 550 | – | – | – | –
12 | FKBP-204 (protein, Description of sequence: Construct Name: FKBP-204; Mutation(s): Q72R Q84E A117W V85R DRD M54A D90A) HCPIKSRKGDVLHAHYTGKLEDGTEFDSSLPRNQPFVFSLGTGERIKGWAQGLLGMCEGEKRKLVIPSELGYGERGWPPKIPGGATLVFEVELLKIER | 15200 | 37.9 | 15500 | – | – | – | –
13 | FKBP-162 (protein, C-terminal R deleted; Description of sequence: Construct Name: FKBP-162; Mutation(s): Q72R Q84E A117W DRD M54A del c-term R V85R) HCPIKSRKGDVLHAHYTGKLEDGTEFDSSLPRNQPFVFSLGTGERIKGWDQGLLGMCEGEKRKLVIPSELGYGERGWPPKIPGGATLVFEVELLKIE | 1800 | 46.6 | 1870 | – | – | – | –
